Laboratory results as given in patent US11135246B2, “Peptides and combination of peptides for use in immunotherapy against leukemias and other cancers” (Immatics Biotechnologies GmbH, priority 2017, dated 2021).

Legend:
Conditions in all cases: peptide exchange yield
HLA-A*01:01 = HLA-A*01:01 (Homo sapiens, UniProt P04439, A114D/A174V/A182V/D101N/D185E/E176A/E190D/L180R/Q94H/R68K/S129P/T187R/V100A/V91M/W191G); assay: MHC binding assay, UV-ligand exchange with β2m ELISA, HLA-A*01:01
Description: (§1) Candidate peptides for T cell based therapies according to the present invention were further tested for their MHC binding capacity (affinity). The individual peptide-MHC complexes were produced by UV-ligand exchange, where a UV-sensitive peptide is cleaved upon UV-irradiation, and exchanged with the peptide of interest as analyzed. Only peptide candidates that can effectively bind and stabilize the peptide-receptive MHC molecules prevent dissociation of the MHC complexes. To determine the yield of the exchange reaction, an ELISA was performed based on the detection of the light chain (β2m) of stabilized MHC complexes. The assay was performed as generally described in Rodenko et al. (Rodenko et al., 2006).
(§2) 96 well MAXISorp plates (NUNC) were coated over night with 2 ug/ml streptavidin in PBS at room temperature, washed 4× and blocked for 1 h at 37° C. in 2% BSA containing blocking buffer. Refolded HLA-A*02:01/MLA-001 monomers served as standards, covering the range of 15-500 ng/ml. Peptide-MHC monomers of the UV-exchange reaction were diluted 100-fold in blocking buffer. Samples were incubated for 1 h at 37° C., washed four times, incubated with 2 ug/ml HRP conjugated anti-β2m for 1 h at 37° C., washed again and detected with TMB solution that is stopped with […]. Absorption was measured at 450 nm. Candidate peptides that show a high exchange yield (preferably higher than 50%, most preferred higher than 75%) are generally preferred for a generation and production of antibodies or fragments thereof, and/or T cell receptors or fragments thereof, as they show sufficient avidity to the MHC molecules and prevent dissociation of the MHC complexes.

HLA-A*02:01 = HLA-A*02:01 (Homo sapiens, UniProt P04439, D140Y/D185E/D98H/E176V/E277Q/G131W/G231S/I119V/I121R/I166T/I218V/L300P/L318F/N151K/N90K/P208A/P217A/Q86G/Q94H/R138H/R169H/T345S); assay: MHC binding assay, UV-ligand exchange with β2m ELISA, HLA-A*02:01
Description: as §1, §2

HLA-A*24:02 = HLA-A*24:02 (Homo sapiens, UniProt P04439, D101N/D140Y/D185E/E176V/E190D/F33S/G103R/G107R/I119L/I121M/I306V/K335N/L105A/L180Q/L300P/N151K/N90K/Q86E/Q94H/R106L/R138H/R89G/T104I/T345S/V100E/W191G/Y123F); assay: MHC binding assay, UV-ligand exchange with β2m ELISA, HLA-A*24:02
Description: as §1, §2

Substance	Peptide exchange (HLA-A*01:01)	Peptide exchange (HLA-A*02:01)	Peptide exchange (HLA-A*24:02)
6 (VTEGVAQTSFY; listed as Homo sapiens) [compound 6]	“++++” (>75% = ++++)	–	–
7 (FMDSESFYY; listed as Homo sapiens) [compound 7]	“+” (>10% = +)	–	–
8 (STDSAGSSY; listed as Homo sapiens) [compound 8]	“++++” (>75% = ++++)	–	–
9 (YSHPQYSSY; listed as Homo sapiens) [compound 9]	“++” (>20% = ++)	–	–
10 (YSDIGHLL; listed as Homo sapiens) [compound 10]	“++” (>20% = ++)	–	–
11 (AAADHHSLY; listed as Homo sapiens) [compound 11]	“+++” (>50 =+++)	–	–
12 (ATDIVDSQY; listed as Homo sapiens) [compound 12]	“+++” (>50 =+++)	–	–
13 (ITDIHIKY; listed as Homo sapiens) [compound 13]	“++++” (>75% = ++++)	–	–
14 (TFDLTVVSY; listed as Homo sapiens) [compound 14]	“++” (>20% = ++)	–	–
15 (SVADIRNAY; listed as Homo sapiens) [compound 15]	“++” (>20% = ++)	–	–
16 (WIGDKSFEY; listed as Homo sapiens) [compound 16]	“++” (>20% = ++)	–	–
17 (KAYNRVIFV; listed as Homo sapiens) [compound 17]	–	“+++” (>50 = +++)	–
18 (YLLPSVVLL; listed as Homo sapiens) [compound 18]	–	“++++” (>75% = ++++)	–
19 (SLFEGIYTI; listed as Homo sapiens) [compound 19]	–	“++++” (>75% = ++++)	–
20 (FSLEDLVRI; listed as Homo sapiens) [compound 20]	–	“++” (>20% = ++)	–
21 (FLFDKLLLI; listed as Homo sapiens) [compound 21]	–	“++++” (>75% = ++++)	–
22 (ILHAQTLKI; listed as Homo sapiens) [compound 22]	–	“+++” (>50 = +++)	–

Substance	Peptide exchange (HLA-A*01:01)	Peptide exchange (HLA-A*02:01)	Peptide exchange (HLA-A*24:02)
23 (FAFSGVLRA; listed as Homo sapiens) [compound 23]	–	“++” (>20% = ++)	–
24 (KLGPVAVSI; listed as Homo sapiens) [compound 24]	–	“++++” (>75% = ++++)	–
25 (YLNEKSLQL; listed as Homo sapiens) [compound 25]	–	“++++” (>75% = ++++)	–
26 (SLYVQQLKI; listed as Homo sapiens) [compound 26]	–	“++++” (>75% = ++++)	–
27 (RLIAKEMNI; listed as Homo sapiens) [compound 27]	–	“++++” (>75% = ++++)	–
53 (KYIEYYLVL; listed as Homo sapiens) [compound 53]	–	–	“++++” (>75% = ++++)
55 (IFVARLYYF; listed as Homo sapiens) [compound 55]	–	–	“++++” (>75% = ++++)
56 (KYSSGFRNI; listed as Homo sapiens) [compound 56]	–	–	“+++” (>50 = +++)
57 (RFPPTPPLF; listed as Homo sapiens) [compound 57]	–	–	“++++” (>75% = ++++)
58 (KYLADLPTL; listed as Homo sapiens) [compound 58]	–	–	“++++” (>75% = ++++)
61 (IFKEHNFSF; listed as Homo sapiens) [compound 61]	–	–	“++++” (>75% = ++++)
62 (YYLSHLERI; listed as Homo sapiens) [compound 62]	–	–	“++++” (>75% = ++++)
63 (IYFSNTHFF; listed as Homo sapiens) [compound 63]	–	–	“+++” (>50 = +++)
64 (SFQSKATVF; listed as Homo sapiens) [compound 64]	–	–	“++” (>20% = ++)
67 (VFLPSEGFNF; listed as Homo sapiens) [compound 67]	–	–	“+++” (>50 = +++)
68 (LYQDRFDYL; listed as Homo sapiens) [compound 68]	–	–	“++++” (>75% = ++++)

Next, values leading:

Peptide exchange (HLA-A*01:01)	Peptide exchange (HLA-A*02:01)	Peptide exchange (HLA-A*24:02)	Substance
–	–	“+++” (>50 = +++)	69 (EYNTIKDKF; listed as Homo sapiens) [compound 69]
–	–	“+++” (>50 = +++)	70 (LYSDIGHLL; listed as Homo sapiens) [compound 70]
–	–	“++++” (>75% = ++++)	71 (RYLGKNWSF; listed as Homo sapiens) [compound 71]
–	–	“+++” (>50 = +++)	72 (TYVENLRLL; listed as Homo sapiens) [compound 72]
–	–	“++++” (>75% = ++++)	73 (TYPQLEGFKF; listed as Homo sapiens) [compound 73]
–	–	“++++” (>75% = ++++)	74 (SYADNILSF; listed as Homo sapiens) [compound 74]
–	–	“+++” (>50 = +++)	75 (RFYLLTEHF; listed as Homo sapiens) [compound 75]
“+++” (>50 =+++)	–	–	188 (YVDAGTPMY; listed as Homo sapiens) [compound 188]
“++++” (>75% = ++++)	–	–	189 (VTEEPQRLFY; listed as Homo sapiens) [compound 189]
“++” (>20% = ++)	–	–	190 (HVDQDLTTY; listed as Homo sapiens) [compound 190]
“+++” (>50 =+++)	–	–	191 (ISEAGKDLLY; listed as Homo sapiens) [compound 191]
“+++” (>50 =+++)	–	–	192 (RSDPGGGGLAY; listed as Homo sapiens) [compound 192]
“+++” (>50 =+++)	–	–	193 (LTDSEKGNSY; listed as Homo sapiens) [compound 193]
“+++” (>50 =+++)	–	–	194 (YTDKKSIIY; listed as Homo sapiens) [compound 194]
“++++” (>75% = ++++)	–	–	195 (YSDKEFAGSY; listed as Homo sapiens) [compound 195]
“+++” (>50 =+++)	–	–	196 (FTDIDGQVY; listed as Homo sapiens) [compound 196]
–	“++++” (>75% = ++++)	–	197 (SLADVHIEV; listed as Homo sapiens) [compound 197]
–	“+++” (>50 = +++)	–	198 (KLLGYDVHV; listed as Homo sapiens) [compound 198]
–	“++++” (>75% = ++++)	–	199 (AMPDSPAEV; listed as Homo sapiens) [compound 199]
–	“+++” (>50 = +++)	–	200 (VMLQINPKL; listed as Homo sapiens) [compound 200]
–	“+++” (>50 = +++)	–	201 (ILAAVETRL; listed as Homo sapiens) [compound 201]
–	“++++” (>75% = ++++)	–	203 (FLLPKVQSI; listed as Homo sapiens) [compound 203]
–	“+++” (>50 = +++)	–	204 (FLLPKVQSIQL; listed as Homo sapiens) [compound 204]
–	“++++” (>75% = ++++)	–	205 (FLINTNSEL; listed as Homo sapiens) [compound 205]
–	“+++” (>50 = +++)	–	206 (SLMDLQERL; listed as Homo sapiens) [compound 206]
–	“++++” (>75% = ++++)	–	207 (KLSDNILKL; listed as Homo sapiens) [compound 207]
–	–	“+++” (>50 = +++)	222 (RYLDEINLL; listed as Homo sapiens) [compound 222]
